In patent US20050223428A1 (published 2005):

Biological target: T1, ERCAT-MBP (ERECTA kinase domain fused to maltose binding protein, kinase-active) (Arabidopsis, UniProt Q42371 611-976)
T1 construct: Expressed in E. coli from pMAL-c2 and purified on amylose resin; dot-blotted on nitrocellulose
T1 sequence: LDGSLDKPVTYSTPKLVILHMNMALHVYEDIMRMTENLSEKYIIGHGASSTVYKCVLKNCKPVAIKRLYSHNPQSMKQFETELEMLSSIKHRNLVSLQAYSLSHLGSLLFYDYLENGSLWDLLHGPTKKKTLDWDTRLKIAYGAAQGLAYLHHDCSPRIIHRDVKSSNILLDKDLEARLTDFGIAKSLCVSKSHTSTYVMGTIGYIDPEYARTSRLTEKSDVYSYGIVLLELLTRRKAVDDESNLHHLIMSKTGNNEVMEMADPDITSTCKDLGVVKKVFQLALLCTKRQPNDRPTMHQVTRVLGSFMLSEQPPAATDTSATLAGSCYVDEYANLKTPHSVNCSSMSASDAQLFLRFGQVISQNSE
Assay: far-western dot blot with 32P-labelled GST-KID
From the text: Far-Western Analysis of the ERECTA-KAPP Interaction: For protein-protein interaction (far-western) blot analysis, the kinase domains of ERECTA and RLK5 were expressed as MBP fusions. The ERECTA kinase domain (corresponding to amino acids 611 to 977) was amplified from cDNA using the primers ERK4 (5′ […] 3′, SEQ ID NO:34) and ER3rc (5′ […] 3′, SEQ ID NO:35). The amplified fragment was digested with EcoRI and BamHI and introduced into pSP73-delta-AatII to generate pKUT503. […] The first round of PCR was performed with the primer pairs ERK4 and ERK13/K676E (5′ […] 3′, SEQ ID NO:36) and ERKI5/K676E (5′ […] 3′, SEQ ID NO:37) and ERCodeC3 (5′ […] 3′, SEQ ID NO:38). In the next round, products from both reactions were mixed and amplified with ERK4 and ERCodeC3. The amplified fragment was digested with EcoRI and BamHI and introduced into the plasmid pSP73-delta-AatII to generate pKUT536. The EcoRI-SalI fragments of both pKUT503 and pKUT536 were cloned into pMAL-c2 (New England Biolabs). The plasmids RLK5CAT-MBP, RLK5CAT(K711E)MBP, and GST-KID 134 were generous gifts from John Walker (University of Missouri, Columbia). […] Protein concentrations were determined with Bio-Rad Protein Assay Solution. […]

B1: GST-KID (kinase interaction domain of Kinase-Associated Protein Phosphatase, KAPP, fused to glutathione S-transferase) (other, UniProt P46014 180-313, looked up)
chain: SWLFLEVIAGPAIGLQHAVNSTSSSKLPVKLGRVSPSDLALKDSEVSGKHAQITWNSTKFKWELVDMGSLNGTLVNSHSISHPDLGSRKWGNPVELASDDIITLGTTTKVYVRISSQNEFQIPFKIGVASDPMA
modifications: labeled with 32P
notes: Plasmid was a gift (John Walker); expressed in E. coli, purified on glutathione-Sepharose, 32P-labelled and used as the probe in the far-western dot blot; also called KAPP KID; radiolabeled KID protein; not shown: glutathione S-transferase (GST) fusion partner
binding result: no binding (tested: One milligram blotted)
